# Data published in PMC11413682, “SARS-CoV-2 ORF10 hijacking ubiquitination machinery reveals potential unique drug targeting sites” (Acta Pharmaceutica Sinica. B, 2024).
# B1: SARS-CoV-2 ORF10 N5 peptide (peptide)
# peptide: GYINV
# notes: first five residues of the SARS-CoV-2 ORF10 N-terminal extension; also called five-residue peptide; source: synthetic peptide
# Target: T1, CUL2^ZYG11B (residues 490–728) (human, UniProt Q9C0D3 490-728)
# T1 construct: human ZYG11B, substrate receptor of the cullin-2 RING E3 ligase; ARM3–ARM8 repeats, residues 490–728; also called CUL2^ZYG11B(490–728); ARM3–ARM8; source: E. coli, purified (Ni-NTA, TEV cleavage, HiTrap Q HP, gel filtration); not shown: His6, N-terminal, cleaved; SUMO, N-terminal, cleaved
# Test: ITC; MicroCal iTC200; peptides (0.5–1 mmol/L) in the syringe, CUL2^ZYG11B(490–728) (0.03 mmol/L) in the cell; 18 injections of 2 μL; repeated 3 times
# Conditions: both partners purified
# T1 sequence (Q9C0D3 490-728): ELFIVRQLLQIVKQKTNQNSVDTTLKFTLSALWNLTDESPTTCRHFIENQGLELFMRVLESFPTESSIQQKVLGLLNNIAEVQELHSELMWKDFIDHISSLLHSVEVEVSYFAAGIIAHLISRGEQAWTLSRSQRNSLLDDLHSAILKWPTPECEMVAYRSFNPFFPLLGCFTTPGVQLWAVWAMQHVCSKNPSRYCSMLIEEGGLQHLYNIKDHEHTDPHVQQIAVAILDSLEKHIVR
binder,measurement,value
B1,Kd,2.94 µM
